According to FireProtDB (doi:10.1021/bi00250a032):
“And” between values parts separate entries of the source, which are not always exact repeats. Equal values may be shown once.

Conditions: Streptomyces sp. EC3, Thermal, DSC, reversible: yes
[1] = pH 7.5, Sodium phosphate 60 mM, transition: 3
[2] = pH 8.9, glycine-NaOH 60 mM, transition: 4

Endo-1,4-beta-xylanase wild type, Q56013, sequence (Q56013 entry or part of it): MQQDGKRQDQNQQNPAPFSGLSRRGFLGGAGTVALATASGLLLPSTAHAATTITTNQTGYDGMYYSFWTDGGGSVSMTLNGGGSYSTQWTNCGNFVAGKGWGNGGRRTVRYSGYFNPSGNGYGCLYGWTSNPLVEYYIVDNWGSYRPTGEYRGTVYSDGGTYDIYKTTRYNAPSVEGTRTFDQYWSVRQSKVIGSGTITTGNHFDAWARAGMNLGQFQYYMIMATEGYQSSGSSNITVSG

## Endo-1,4-beta-xylanase wild type, Q56013
pH 3.6, Sodium phosphate 60 mM, transition: 4
  unfolding enthalpy (calorimetric): 66 kcal/mol and 84 kcal/mol and 108 kcal/mol
pH 4.1, Sodium phosphate 60 mM, transition: 3
  unfolding enthalpy (calorimetric): 57 kcal/mol and 100 kcal/mol
pH 6.3, Sodium phosphate 60 mM, transition: 4
  unfolding enthalpy (calorimetric): 100 kcal/mol and 150 kcal/mol and 223 kcal/mol
[1]
  Tm: 60.5 °C and 64 °C
  unfolding enthalpy (calorimetric): 99 kcal/mol and 200 kcal/mol
pH 7.5, Sodium phosphate 60 mM, transition: 4
  unfolding enthalpy (calorimetric): 93 kcal/mol and 137 kcal/mol and 187 kcal/mol
pH 8.9, glycine-NaOH 60 mM, transition: 3
  unfolding enthalpy (calorimetric): 72 kcal/mol and 136 kcal/mol
[2]
  Tm: 51.5 °C and 54.6 °C
  unfolding enthalpy (calorimetric): 118 kcal/mol and 157 kcal/mol
